Where a chain is given by its changes, count along the chain named.
T1: human FcγRIIa, type R, extracellular domain, His-tagged (human, UniProt P12318 34-217)
T1 construct: extracellular domain; also called hFcγR IIa R
T1 sequence (looked up): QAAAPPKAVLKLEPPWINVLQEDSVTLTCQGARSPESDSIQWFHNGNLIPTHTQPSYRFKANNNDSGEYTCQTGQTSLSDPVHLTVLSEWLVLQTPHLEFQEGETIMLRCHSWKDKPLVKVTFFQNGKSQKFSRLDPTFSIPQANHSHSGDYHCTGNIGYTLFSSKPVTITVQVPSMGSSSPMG

T2: human FcγRIIa, type H, extracellular domain, His-tagged (human, UniProt P12318 34-217)
T2 construct: extracellular domain; also called hFcγR IIa H
T2 sequence (looked up): T1 sequence (looked up) with R134H

T3: human FcγRIIb extracellular domain, His-tagged (human, UniProt P31994 43-217)
T3 construct: extracellular domain; also called hFcγR IIb
T3 sequence (looked up): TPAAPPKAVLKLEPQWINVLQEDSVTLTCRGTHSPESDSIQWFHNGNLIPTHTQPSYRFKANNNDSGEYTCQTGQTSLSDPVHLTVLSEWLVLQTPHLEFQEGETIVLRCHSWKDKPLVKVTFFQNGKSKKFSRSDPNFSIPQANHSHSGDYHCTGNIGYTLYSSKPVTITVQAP

B1: 04H1637-Kn462/04L1610-lam1//04H1637-H1441/04L1610-lam1 (antibody, human IgG1, lambda)
heavy 1: QVQLVESGGGLVKPGGSLRLSCAASGFTFSSKTMNWVRQAPGKGLEWVSSISTQSHYIYYAESVRGRFTISRDNAKNSLYLQMNSLRAEDTAVYYCARYGKREDMLWVFDYWGQGTLVTVSSASTKGPSVFPLAPSSKSTSGGTAALGCLVKDYFPEPVTVSWNSGALTSGVHTFPAVLQSSGLYSLSSVVTVPSSSLGTQTYICNVNHKPSNTKVDKKVEPKSCDKTHTCPPCPAPEFQWGPMVFLFPPKPKDVLMISRTPEVTCVVVDVSDEEPEVKFNWYVDGVEVHNAKTKPREEQYNATYRVVSVLPVLHQDWLNGKEYKCKVSNDALPAPIEKTISKAKGQPREPQVCTLPPSRDELTKNQVSLWCLVKGFYPSDIAVEWESNGQPENNYKTTPPVLDSDGSFFLYSKLTVDKSRWQQGNVFSCSVMHEALHNHYTQKSLSLSP
heavy 2: QVQLVESGGGLVKPGGSLRLSCAASGFTFSSKTMNWVRQAPGKGLEWVSSISTQSHYIYYAESVRGRFTISRDNAKNSLYLQMNSLRAEDTAVYYCARYGKREDMLWVFDYWGQGTLVTVSSASTKGPSVFPLAPSSKSTSGGTAALGCLVKDYFPEPVTVSWNSGALTSGVHTFPAVLQSSGLYSLSSVVTVPSSSLGTQTYICNVNHKPSNTKVDKKVEPKSCDKTHTCPPCPAPELLAGPSVFLFPPKPKDVLMISRTPEVTCVVVDVSHEEPEVKFNWYVDGVEVHNAKTKPREEQYNATYRVVSVLPVLHQDWLNGKEYKCKVSNDALPAPIEETISKAKGQPREPQVYTLPPSRCELTKNQVSLSCAVKGFYPSDIAVEWESNGQPENNYKTTPPVLDSDGSFFLVSKLTVDKSRWQQGNVFSCSVMHEALHNHYTQKSLSLSP
light: QSALTQPPSASGSPGQSVTISCEGPSTGVGDYNWVHWYQQHPGKAPKLMIYFTSKKPSGVPDRFSGSKSGNTASLTVSGLQAEDEADYYCQTYAAPLGPMFGGGTKLTVLGQPKAAPSVTLFPPSSEELQANKATLVCLISDFYPGAVTVAWKADSSPVKAGVETTTPSKQSNNKYAASSYLSLTPEQWKSHRSYSCQVTHEGSTVEKTVAPTECS
notes: Heterodimerized IgG1 Fc variant; also called 04H1637-Kn462/04L1610-lam1//04H1637-Hl441/04L1610-lam1
B2: 04H1637-Kn461/04L1610-lam1//04H1637-H1443/04L1610-lam1 (antibody, human IgG1, lambda)
heavy 1: B1 heavy 1 with I337E
heavy 2: B1 heavy 2 with I337E
light: B1 light
notes: Heterodimerized IgG1 Fc variant; also called 04H1637-Kn461/04L1610-lam1//04H1637-Hl443/04L1610-lam1
B3: 04H1637-Kn462/04L1610-lam1//04H1637-H1445/04L1610-lam1 (antibody, human IgG1, lambda)
heavy 1: B1 heavy 1
heavy 2: B1 heavy 2 with A335K, I337D
light: B1 light
notes: Heterodimerized IgG1 Fc variant; also called 04H1637-Kn462/04L1610-lam1//04H1637-Hl445/04L1610-lam1
B4: 04H1637-Kn125/04L1610-lam1//04H1637-H1076/04L1610-lam1 (antibody, human IgG1, lambda)
heavy 1: B1 heavy 1 with F239Y, V255T, P312T, D331K
heavy 2: B1 heavy 2 with A241G, V255T, A303S, P312T, A335M
light: B1 light
notes: Heterodimerized IgG1 with the Fc variant of WO 2013/002362; also called 04H1637-Kn125/04L1610-lam1//04H1637-Hl076/04L1610-lam1

biological target: T4, human FcγRIa extracellular domain, His-tagged (human, UniProt P12314 16-292); assay: KD of 04H1637-G1m/04L1610-lam1 divided by KD of this antibody; SPR pH 7.4
T4 construct: also called hFcγR Ia
T4 sequence (P12314 16-292): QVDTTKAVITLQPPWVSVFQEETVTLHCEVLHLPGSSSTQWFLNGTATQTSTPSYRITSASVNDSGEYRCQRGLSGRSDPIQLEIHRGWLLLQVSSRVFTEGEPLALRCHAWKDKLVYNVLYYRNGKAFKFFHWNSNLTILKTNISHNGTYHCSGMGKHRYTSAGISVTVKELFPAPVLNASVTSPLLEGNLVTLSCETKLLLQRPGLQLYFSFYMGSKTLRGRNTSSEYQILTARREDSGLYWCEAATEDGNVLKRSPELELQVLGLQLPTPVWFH
Procedure: (§1) The interaction between the generated antibodies and human FcγRs was analyzed by the following method using Biacore T200. 50 mM Na-Phosphate, 150 mM NaCl, 0.05% Tween20 (pH 7.4) was used as the running buffer, and the assay was performed at 25° C. For the sensor chips, Series S SA (GE Healthcare) chips onto which CaptureSelect Human Fab-lambda Kinetics Biotin Conjugate (Thermo Fisher Scientific) was immobilized were used. The antibodies of interest were captured onto these chips and each FcγR diluted in the running buffer was allowed to interact with them. Chips were regenerated with 10 mM Glycine-HCl (pH 1.5) and 25 mM NaOH, and assay was performed by repeatedly capturing antibodies. The dissociation constants KD (mol/L) for FcγRs of each antibody were calculated using Biacore T200 Evaluation Software 2.0, using the 1:1 Langmuir binding model for FcγRIa and FcγRIIIa and the steady state affinity model for FcγRIIa. For FcγRIIb, the binding amount of FcγRIIb per unit amount of antibody was calculated by correcting the binding amount of FcγRIIb obtained from the sensorgram obtained by the measurement with the amount of antibody captured onto the chip surface.
(§2) “Relative value to KD between G1m and hFcRn” and “Relative value to KD between G1m and hFcγRs” are values obtained by dividing the KD value of 04H1637-G1m/04L1610-lam1 for hFcRn and for each FcγR by the KD value of each variant, respectively. “Relative binding amount” indicates the value obtained by dividing the binding amount of each variant to FcγRIIb by the binding amount of 04H1637-G1m/04L1610-lam1. […] It was shown that all of the generated heterodimerized antibodies had enhanced binding to FcγRIIa and FcγRIIIa as compared with 04H1637-G1m/04L1610-lam1 which has the constant region of native human IgG1.

| Relative value to KD between G1m and hFcγRs [ratio] | Binder |
| --- | --- |
| 0.3 | B1 |
| 1.2 | B2 |
| 0.6 | B3 |
| 1.2 | B4 |

biological target: T1, human FcγRIIa, type R, extracellular …; assay: as above
Procedure: as §1, §2

| Relative value to KD between G1m and hFcγRs [ratio] | Binder |
| --- | --- |
| 9.2 | B1 |
| 10.7 | B2 |
| 18.7 | B3 |
| 1.6 | B4 |

biological target: T2, human FcγRIIa, type H, extracellular …; assay: as above
Procedure: as §1, §2

| Relative value to KD between G1m and hFcγRs [ratio] | Binder |
| --- | --- |
| 20.9 | B1 |
| 11.1 | B2 |
| 37.5 | B3 |
| 3.6 | B4 |

biological target: T5, human FcγRIIIa, allotype F158, extracellular domain, His-tagged (human, UniProt P08637 17-208); assay: as above
T5 construct: extracellular domain; also called hFcγR IIIa F
T5 sequence (P08637 17-208): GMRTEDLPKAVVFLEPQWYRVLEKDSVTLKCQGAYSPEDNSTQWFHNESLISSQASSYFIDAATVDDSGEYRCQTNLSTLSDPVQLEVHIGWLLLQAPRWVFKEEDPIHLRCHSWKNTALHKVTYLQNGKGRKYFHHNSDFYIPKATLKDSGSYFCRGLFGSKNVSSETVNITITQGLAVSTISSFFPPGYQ
Procedure: as §1, §2

| Relative value to KD between G1m and hFcγRs [ratio] | Binder |
| --- | --- |
| 79.5 | B1 |
| 616 | B2 |
| 382 | B3 |
| 406 | B4 |

biological target: T6, human FcγRIIIa, allotype V158, extracellular domain, His-tagged (human, UniProt P08637 17-208); assay: as above
T6 construct: extracellular domain; also called hFcγR IIIa V
T6 sequence (P08637 17-208 F176V): as the sequence (P08637 17-208) above, with F160V counted along it
Procedure: as §1, §2

| Relative value to KD between G1m and hFcγRs [ratio] | Binder |
| --- | --- |
| 45.8 | B1 |
| 226 | B2 |
| 131 | B3 |
| 126 | B4 |

biological target: T3, human FcγRIIb extracellular domain, …; assay: SPR Biacore T200, 25C, pH 7.4; FcγRIIb at 1000 nM, corrected by captured antibody
Procedure: as §1

| Binding amount | Binder |
| --- | --- |
| 0.013 RU per RU of captured antibody | B1 |
| 0.025 RU per RU of captured antibody | B2 |
| 0.03 RU per RU of captured antibody | B3 |
| 0.007 RU per RU of captured antibody | B4 |

biological target: T3, human FcγRIIb extracellular domain, …; assay: binding amount of this antibody divided by that of 04H1637-G1m/04L1610-lam1; SPR pH 7.4
Procedure: as §1, §2

| Relative binding amount [ratio] | Binder |
| --- | --- |
| 1.6 | B1 |
| 3.1 | B2 |
| 3.7 | B3 |
| 0.9 | B4 |
